Experimental data published in patent publication US11414648B2, “Methods and compositions for production of fallopian tube epithelium” (CEDARS-SINAI MEDICAL CENTER, priority 2017, dated 2022).

How the values were obtained:
Assay type in all cases: cell-based
human iPSCs [1] = assay: Differentiation of human iPSCs into mesoderm (qPCR/immunocytochemistry of MIXL1, BRACHYURY); conditions: 100 ng/ml activin A and 3 μM CHIR99021 used together; iPSC line 87iCTR-n3; peak at day 2
Experimental: Human iPSCs were split onto Matrigel-coated plates, and cultured in mTeSR®1 medium until 80% confluent. Three intermediate protocols were compared, according to Mae et al. (2013), Xia et al. (2013), and Takasato et al. (2014). […]
Total cellular RNA was isolated using Qiagen RNeasy Mini kit according to the manufacturer's recommendations (Qiagen). Of RNeasy-treated total RNA (1 μg) was used for cDNA synthesis using the Quantitect Reverse Transcription Kit for cDNA synthesis for PCR (Qiagen). […]

human iPSCs [2] = assay: Differentiation of mesoderm into intermediate mesoderm (IM) (marker expression); conditions: for transient upregulation of BRACHYURY and MIXL1 seen during gastrulation: BMP4 vs BMP7 treatment, 87iCTR-n3 iPSC line
Experimental: (§1) Human iPSCs were split onto Matrigel-coated plates, and cultured in mTeSR®1 medium until 80% confluent. Three intermediate protocols were compared, according to Mae et al. (2013), Xia et al. (2013), and Takasato et al. (2014). The final protocol that achieved best efficiency and results for creating fallopian tube epithelium was a modified Mae et. al., (2013) protocol, as defined below. • Day 0-2: Cells were exposed to 100 ng/ml human recombinant activin A (Stemgent) and 3 μM CHIR99021 (Cayman Chemicals) to differentiate towards mesoderm, and cultured in DMEM/F12 (Gibco)+Glutamax (Invitrogen) supplemented with 500 U/ml penicillin streptomycin (Gibco) and 2% fetal bovine serum (FBS) with addition of 10 μM ROCK inhibitor Y-27632 (Stemgent). • Day 2-4: To differentiate towards IM, media was changed to DMEM/F12 (Gibco)+Glutamax (Invitrogen) supplemented with 0.1 mM non-essential amino acids (Invitrogen), 500 u/ml penicillin/streptomycin (Gibco), 0.55 mM 2-mercaptoethanol, 10% KOSR (Invitrogen), 100 ng/ml BMP4 (R&D Systems), 3 μM CHIR99021 (Cayman Chemicals), and 10 μM ROCK inhibitor Y-27632 (Stemgent). • Day 4-6: Spheroids were collected from wells and re-plated per methods described below. To differentiate the spheroid cultures towards Müllerian epithelium, media was changed to Fallopian tube media (FTM) containing DMEM/F12 (Gibco)+500 u/ml penicillin/streptomycin (Gibco), and 10 ml reconstituted Ultroser G (15950-017, Pall) and 10 μM ROCK inhibitor Y-27632 (Stemgent). To the FTM, 100 ng/ml human recombinant WNT4 (R&D Systems) with or without 3 μM CHIR99021(Cayman Chemicals), 100 ng/ml human recombinant WNT3A (R&D Systems) with or without 3 μM CHIR99021 (Cayman Chemicals) were added. • Day 6-8: FTM was changed and 20 ng/ml human recombinant Follistatin (Peprotech), 1 ng/ml estrogen and 33 ng/ml progestrone were added.
(§2) Total cellular RNA was isolated using Qiagen RNeasy Mini kit according to the manufacturer's recommendations (Qiagen). Of RNeasy-treated total RNA (1 μg) was used for cDNA synthesis using the Quantitect Reverse Transcription Kit for cDNA synthesis for PCR (Qiagen). Real-time PCR was performed using the SYBR Green Supermix (BioRad). The levels of expression of respective genes were normalized to corresponding GAPDH values and are shown as fold change relative to the value of the control sample. All sample analyses were carried out in triplicate.
(§3) Monolayer cultures were grown on poly-1-lysine and ornithine coated glass coverslips. Cells were washed once with phosphate buffered saline (PBS) and fixed with 4% paraformaldehyde (PFA) in 1× PBS for 20 minutes and permeabilized in PBS containing 0.5% Triton X-100 (PBS-T) (Sigma) for 5 minutes at room temperature. […]

[3] = system: intermediate mesoderm (IM) cells derived from human iPSCs; assay: Differentiation of intermediate mesoderm into Müllerian duct / FTE precursor vs nephric duct (marker expression); conditions: for expression of kidney markers SIX2 and FOXD1: qPCR, relative to iPSC day 0, 87iCTR-n3
Experimental: as §1, §2, §3

Row | Molecule | mesoderm induction (MIXL1 and BRACHYURY) (human iPSCs [1]) | transient upregulation of BRACHYURY and MIXL1 seen during gastrulation (human iPSCs [2]) | expression of kidney markers SIX2 and FOXD1 [3] | also measured
1 | Cc1c[nH]c(-c2cnc(NCCNc3ccc(C#N)cn3)nc2-c2ccc(Cl)cc2Cl)n1 [CHIR99021, reference compound] | rapidly and efficiently specified human iPSCs (line 87iCTR-n3) into mesoderm |  |  | 
2 | BMP4: BMP4 growth factor (R&D Systems) (protein, UniProt P12644 293-408, looked up) Bone morphogenetic protein 4: SPKHHSQRARKKNKNCRRHSLYVDFSDVGWNDWIVAPPGYQAFYCHGDCPFPLADHLNSTNHAIVQTLVNSVNSSIPKACCVPTELSAISMLYLDEYDKVVLKNYQEMVVEGCGCR |  | expected transient upregulation |  | mesoderm differentiation into IM, based on expression of early IM markers PAX2, OSR1 and GATA3 (human iPSCs [2]; 100 ng/ml, day 2-4, compared with BMP7 of Mae et al protocol): optimal mesoderm differentiation into IM; expression of endoderm-marker SOX17 and ectoderm-marker NCAM (human iPSCs [2]; differentiation protocol that included BMP4, 87iCTR-n3): no to very low detectable expression levels
3 | WNT3A: human recombinant WNT3A (R&D Systems) (protein, UniProt P56704 19-352, looked up) Protein Wnt-3a: SYPIWWSLAVGPQYSSLGSQPILCASIPGLVPKQLRFCRNYVEIMPSVAEGIKIGIQECQHQFRGRRWNCTTVHDSLAIFGPVLDKATRESAFVHAIASAGVAFAVTRSCAEGTAAICGCSSRHQGSPGKGWKWGGCSEDIEFGGMVSREFADARENRPDARSAMNRHNNEAGRQAIASHMHLKCKCHGLSGSCEVKTCWWSQPDFRAIGDFLKDKYDSASEMVVEKHRESRGWVETLRPRYTYFKVPTERDLVYYEASPNFCEPNPETGSFGTRDRTCNVSSHGIDGCDLLCCGRGHNARAERRREKCRCVFHWCCYVSCQECTRVYDVHTCK |  |  | increased expression | decreased levels of WT1 and OVGP1 compared to WNT4 treatment ([3]; WNT3A treatment (nephric duct differentiation) vs WNT4): ~10 fold
4 | activin A: human recombinant activin A (Stemgent), growth factor (protein, UniProt P08476 311-426, looked up, Inhibin beta A chain activin A homodimer) Inhibin beta A chain: GLECDGKVNICCKKQFFVSFKDIGWNDWIIAPSGYHANYCEGECPSHIAGTSGSSLSFHSTVINHYRMRGHSPFANLKSCCVPTKLRPMSMLYYDDGQNIIKKDIQNMIVEECGCS | rapidly and efficiently specified human iPSCs (line 87iCTR-n3) into mesoderm |  |  | 
5 | WNT4: human recombinant WNT4 (R&D Systems) (protein, UniProt P56705 23-351, looked up) Protein Wnt-4: SNWLYLAKLSSVGSISEEETCEKLKGLIQRQVQMCKRNLEVMDSVRRGAQLAIEECQYQFRNRRWNCSTLDSLPVFGKVVTQGTREAAFVYAISSAGVAFAVTRACSSGELEKCGCDRTVHGVSPQGFQWSGCSDNIAYGVAFSQSFVDVRERSKGASSSRALMNLHNNEAGRKAILTHMRVECKCHGVSGSCEVKTCWRAVPPFRQVGHALKEKFDGATEVEPRRVGSSRALVPRNAQFKPHTDEDLVYLEPSPDFCEQDMRSGVLGTRGRTCNKTSKAIDGCELLCCGRGFHTAQVELAERCSCKFHWCCFVKCRQCQRLVELHTCR |  |  | lack of expression | expression of fallopian tube precursor (Müllerian duct) markers WT1 and OVGP1 ([3]; qPCR and immunocytochemistry, 100 ng/ml WNT4 on day 4 followed by 20 ng/ml Follistatin on day 6, WNT4/CHIR compared to WNT4 alone): upregulated expression over time
6 | BMP7: Bone Morphogenetic Protein used in the Mae et al (2013) protocol (protein, UniProt P18075 293-431, looked up) Bone morphogenetic protein 7: STGSKQRSQNRSKTPKNQEALRMANVAENSSSDQRQACKKHELYVSFRDLGWQDWIIAPEGYAAYYCEGECAFPLNSYMNATNHAIVQTLVHFINPETVPKPCCAPTQLNAISVLYFDDSSNVILKKYRNMVVRACGCH |  | not recapitulated |  | 
